Experiment [1] addresses phage displayed HA gene fragment D363-G478 (Influenza A virus A/California/07/2009 …, UniProt C3W5X2). Description: ELISA. Particulars: both partners purified.
Experiment [2] concerns the target hemagglutinin of A/California/07/2009 (H1N1)pdm09, in the influenza virus antigen standard (Influenza A virus A/California/07/2009 …, UniProt C3W5X2, strain). Description: ELISA. Particulars: one partner purified.
Experiment [3] has as its target T1, recombinant H3-HA, A/Brisbane/10/2007 (H3N2) (Influenza A virus A/Brisbane/10/2007 …, UniProt A8W8K8, strain).
T1 construct: source: bought: Protein Sciences
Description: SPR; data not shown: sdAbs on immobilised recombinant H3-HA and H7-HA. Particulars: both partners purified.

In experiment [4] the target is T2, recombinant H7-HA, A/Netherlands/219/2003 (H7N7) (Influenza A virus …, UniProt Q6VMK1).
T2 construct: source: bought: Protein Sciences
The experiment is described as above. Particulars: both partners purified.

Experiment [5] deals with recombinant H9-HA, A/HongKong/1073/99 (H9N2) (Influenza A virus A/Hong Kong/1073/99 …, UniProt Q9ICY5, strain). Put plainly: SPR. Particulars: both partners purified.
Experiment [6] has as its target hemagglutinin of A/Anhui/01/2005 (H5N1), in the influenza virus antigen standard (Influenza A virus A/Anhui/1/2005 (H5N1), UniProt Q1WDM0, strain). Put plainly: ELISA. Particulars: one partner purified.
Experiment [7] concerns the target hemagglutinin of A/Indonesia/05/2005 (H5N1), in the influenza virus antigen standard (Influenza A virus A/Indonesia/05/2005 …, UniProt A5A5L7, strain). Description: ELISA. Particulars: one partner purified.
Experiment [8] concerns the target hemagglutinin of A/Singapore/01/57 (H2N2), in the influenza virus antigen standard (Influenza A virus A/Singapore/1/1957 …, UniProt Q67333, strain). Put plainly: ELISA. Particulars: one partner purified.
Experiment [9] concerns the target hemagglutinin of A/Brisbane/10/2007 (H3N2), in the influenza virus antigen standard (Influenza A virus A/Brisbane/10/2007 …, UniProt A8W8K8, strain). Description: ELISA. Particulars: one partner purified.
Experiment [10] addresses hemagglutinin of A/HongKong/213/2003 (H5N1), in the influenza virus antigen standard (Influenza A virus A/Hong Kong/213/2003 …, UniProt Q4H2E2, strain). Put plainly: ELISA. Particulars: one partner purified.
Experiment [11] deals with phage displayed HA gene fragment L193-K225 (Influenza A virus A/California/07/2009 …, UniProt C3W5X2). Description: ELISA. Particulars: both partners purified.
The target in experiment [12] is phage displayed HA gene fragment P66-I282 (Influenza A virus A/California/07/2009 …, UniProt C3W5X2). Description: ELISA. Particulars: both partners purified.
Experiment [13] has as its target recombinant H5-HA, A/Vietnam/1203/2004 (H5N1) (Influenza A virus A/Vietnam/1203/2004 …, UniProt Q5EP31, strain). Put plainly: SPR. Particulars: both partners purified.
The target in experiment [14] is recombinant H1-HA (D18-I530), A/California/06/2009 (H1N1)pdm09 (Influenza A virus A/California/06/2009 …, UniProt C3W5S1, strain). Put plainly: SPR. Particulars: both partners purified.
In experiment [15] the target is T3, recombinant H1-HA (H1N1)pdm09 hemagglutinin (Influenza A virus (H1N1)pdm09; …, UniProt C3W5S1, strain).
T3 construct: source: bought: Protein Sciences
Description: SPR. Particulars: both partners purified.

For experiment [16], the target named is T4, recombinant H7-HA, A/Netherlands/219/2003 (H7N7) (Influenza A virus …, UniProt Q6VMK1).
T4 construct: source: bought: Protein Sciences
Put plainly: SPR. Particulars: both partners purified.

For experiment [17], the target named is recombinant H9-HA, A/HongKong/1073/99 (H9N2) (Influenza A virus A/Hong Kong/1073/99 …, UniProt Q9ICY5, strain). Put plainly: SPR. Particulars: both partners purified. This is another data set of the same source.
Experiment [18] concerns the target T5, recombinant H2-HA, A/Japan/305/57 (H2N2) (Influenza A virus A/Japan/305/1957 …, UniProt P03451, strain).
T5 construct: source: bought: E-Enzymes (list of antigens) or Protein Sciences (SPR methods)
Put plainly: SPR. Particulars: both partners purified.

Experiment [19] has as its target T6, recombinant H2-HA, A/Japan/305/57 (H2N2) (Influenza A virus A/Japan/305/1957 …, UniProt P03451, strain).
T6 construct: source: bought: E-Enzymes (Protein Sciences in the SPR methods)
Description: SPR. Particulars: both partners purified.

Experiment [20] deals with hemagglutinin of A/HongKong/1073/99 (H9N2), in the influenza virus antigen standard (Influenza A virus A/Hong Kong/1073/99 …, UniProt Q9ICY5, strain). Description: ELISA. Particulars: one partner purified.
In experiment [21] the target is recombinant HA1 domain (D18-R344), A/California/06/2009 (H1N1)pdm09 (Influenza A virus A/California/06/2009 …, UniProt C3W5S1, strain). Description: SPR. Particulars: both partners purified.

Here are results for seven molecules from paper PMC4118869 (PLoS ONE, 2014).

B1: R2b-D8 (VHH)
VHH: QVQLVESGGGLVQPGGSLRLSCAASGFTFSWYDVGWYRRAPGKERELVADIASTRGTTNYADSVKGRFTISRDNAKNSVYLQMNSLKPEDTAVYYCNTRRDWRDYWGQGIQVTVSS
notes: source: E. coli WK6 periplasm, purified (Talon IMAC, Superdex 75 SEC)
In the case of B1, the binding result in experiment [1] was “binds”; in experiment [2], “binds”; in [3], “no binding”; in [4] it was “no binding”; in experiment [5], “no binding”; in experiment [6], “binds”. Moreover, the binding result in experiment [7] is listed as “binds”; in experiment [8], “binds”; in experiment [9] it was “no binding”; in experiment [10], “binds”.

B2: R1a-B6 (VHH)
VHH: QVQLVESGGGLVQPGGSLRLSCAASGSFFSRYRMGWYRQAPGEQRELVASIAYDGSTSYADPVKGRFTISRDNANTVHLQMYSLKPDDTAVYYCNLDPPGILYWGQGTQVTVSS
notes: also called R1a-B6 monovalent; source: E. coli WK6 periplasm, purified (Talon IMAC, Superdex 75 SEC)
Regarding B2, the binding result in experiment [1] is on record as “no binding”; in experiment [11], “no binding”; in [2], “binds”; in experiment [12], “no binding”; in experiment [3], “no binding”; in [4], “no binding”. For the same molecule, the binding result in experiment [6] is reported as “binds”; in [7], “binds”; in experiment [8], “binds”; in experiment [9], “no binding”; in [10], “binds”. Further, the Kd in experiment [13] came out at 0.52 nM; in experiment [5], 6.89 nM; in experiment [14], 0.86 nM.

B3: R1a-B6 monovalent (VHH)
VHH: QVQLVESGGGLVQPGGSLRLSCAASGSFFSRYRMGWYRQAPGEQRELVASIAYDGSTSYADPVKGRFTISRDNANTVHLQMYSLKPDDTAVYYCNLDPPGILYWGQGTQVTVSS
notes: source: E. coli WK6, periplasmic extract, purified (Talon IMAC, Superdex 75 SEC)
With B3, the Kd in experiment [15] turned out to be 0.36 nM; in experiment [17] it was 4.19 nM. For the same molecule, the binding result in experiment [16] is “no binding”.

B4: R1a-A5 monovalent (VHH)
VHH: QVQLVESGGGLVQPGGSLRLSCSASGSAVLFSTYPMSWYRQAPGKQRELVAAVTTDGSTSYADYAKGRFTISRDNAKNTVYLQMNSLKPEDTAVYYCNARDGFFNRYDYWGQGTQVTVSS
notes: as for B3
With B4, in experiment [15], the Kd was 1.56 nM. The binding result in [16], in experiment [17] and in experiment [18] was “no binding” in each case.

B5: R2b-E8 (VHH)
VHH: QVQLVESGGGLVQPGGSLRLSCAASGSFFSRYRMGWYRQAPGEQRELVAGITYDDSTNYAGSVKGRFTISRDNAKNTVHLQMNSLKPEDTAVYYCNLNPPGNLYWGQGTQVTVSS
notes: as for B1
Take B5: the binding result in [1] is on record as “no binding”; in experiment [11] it was “no binding”; in experiment [2] it was “binds”; in [12], “no binding”; in experiment [3], “no binding”; in experiment [4], “no binding”. For the same molecule, the binding result in [19] is reported as “no binding”; in experiment [6] it was “binds”; in experiment [20] it was “binds”; in [7], “binds”; in experiment [9] it was “no binding”; in experiment [10], “binds”. Besides, the Kd came out at 0.48 nM in [13] and 1.74 nM in [14]. For the same molecule, the dissociation rate constant (koff) in experiment [13] was found to be 0.000143 s⁻¹; in experiment [14], 0.000628 s⁻¹. In addition, the values for the kon in [13] and in experiment [14] were 299000 M⁻¹ s⁻¹ and 361000 M⁻¹ s⁻¹, respectively.

B6: R2b-D9 (VHH)
VHH: QVQLVESGGGLVQPGGSLRLSCLASGSAFSLYTMGWYRQAPGNQRELVAAITSGESTNYADSVKGRFTISRDNAKNTVYLQMNSLKPEDTAVYYCNADPLSTGWGQYSYWGQGTQVTVSS
notes: as for B1
For B6, the binding result is on record as “no binding” in experiment [1]; “no binding” in experiment [11]; “binds” in [2]; “no binding” in experiment [12]; “no binding” in experiment [3]; “no binding” in [4]. In addition, the binding result was “binds” in [6]; “binds” in experiment [7]; “binds” in experiment [8]; “no binding” in experiment [9]; “binds” in experiment [10]. Moreover, the Kd in experiment [13] worked out at 0.15 nM; in [5], 128 nM; in experiment [19] it was 2.17 nM; in experiment [14], 0.18 nM. The koff in [13] is 2.08e-05 s⁻¹; in experiment [5], 0.0528 s⁻¹; in experiment [19], 0.000163 s⁻¹; in experiment [14] it was 2.96e-05 s⁻¹. In addition, the kon in [13] came out at 141000 M⁻¹ s⁻¹; in [5] it was 413000 M⁻¹ s⁻¹; in experiment [19], 75400 M⁻¹ s⁻¹; in [14], 167000 M⁻¹ s⁻¹.

B7: R2a-G8 (VHH)
VHH: QLQLAESGGGLVQAGGSLRLSCAASGSTLNNNAIGWFRQAPGKEREGVSCMNSRDGTTNYADSVKGRFTISRDVAKNTVYLQMNSLKPEDTAVYFCAVKGFAPFLIGCPWGKAEYDYWGQGTQVTVSS
notes: as for B1
Take B7: the binding result is recorded as “no binding” in experiment [11]; “binds” in experiment [2]; “no binding” in experiment [12]; “no binding” in experiment [3]; “no binding” in experiment [4]; “no binding” in [5]. In addition, the binding result was “binds” in [6], “binds” in [7], “no binding” in experiment [9] and “binds” in experiment [10]. The Kd is 9.07 nM in [13], 18.5 nM in experiment [19], 3.55 nM in experiment [14] and 7.66 nM in experiment [21]. Further, the figures for the koff in experiment [13], in experiment [19] and in experiment [14] were 0.00223 s⁻¹, 0.0142 s⁻¹ and 0.000798 s⁻¹, respectively. In addition, the kon was 252000 M⁻¹ s⁻¹ in [13], 764000 M⁻¹ s⁻¹ in experiment [19] and 225000 M⁻¹ s⁻¹ in experiment [14].
